Source: patent publication US20250340636A1 (Memorial Sloan Kettering, published 2025)
Changes are numbered by the printed parent chain.

B1: TDI-Y-004 ADC with PNU-159682 and a cleavable Glu-Val-Cit linker (antibody, human IgG1, kappa, V domains shown)
VH: QVQLVQSGAEVKKPGSSVKVSCKASGYTFTNYYIHWVRQAPGQGLEWMGKIGPGSGSPYYQGMFKDRVTITADESTSTAYMELSSLRSEDTAVYYCARWLLPFDYWGQGTLVTVSS
VL: EIVLTQSPGTLSLSPGERATLSCRASSSVNYMHWYQQKPGQAPRLLIYATSILASGIPDRFSGSGSGTDYTLTISRLEPEDFAVYYCQQFSSDPLTFGGGTKVEIKR
modifications: ThioBridge linker-payload on the interchain disulfide cysteine; ThioBridge-Glu[-Glu(OH)-Val-Cit-PAB-DMEA-PNU159682]-PEG(24) rebridging the reduced interchain disulfide cysteines; average DAR about 4
B2: 15G02 (antibody, V domains shown)
VH: EVQLVESGGGLVQPGGSLRLSCGVSGFTFSHYWMNWVRQAPGKGLEWVANIMQDGSEKYYVDSVKGRFTISRDNAKNSLYLQMNSLRVEDTAVYYCARDRGVTTLFDYWGQGILVTVSS
VL: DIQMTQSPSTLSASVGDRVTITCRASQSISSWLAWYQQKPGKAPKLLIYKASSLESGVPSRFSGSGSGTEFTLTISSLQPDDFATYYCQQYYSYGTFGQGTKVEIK
notes: mAb from AlivaMab mice, purified from hybridoma supernatant
B3: 13G04 (antibody, V domains shown)
VH: QVQLVQSGAEVKKPGASVKVSCKASGYTFIGYYLHWVRQAPGQGLEWMGWINPNSGGTNSAQKFQGRVTMTRDTSISTTYMDLSRLRSDDTAVYYCARGGLERRDAFDIWGQGTLVTVSS
VL: DIQMTQSPSTLSASVGDRVTITCRASQSISNWLAWYQQKPGKAPNLLIYKASSLESGVPSRFSGSGSGTEFTLTISSLQPDDFATYYCQQYDTYRTFGQGTKVEIK
notes: as for B2
B4: 143G03 (antibody, V domains shown)
VH: QVQLRQSGAELVRPGTSVKMSCKASGYTFTNYYIHWVKQRPGQGLEWIGKIGPGSGSPYYNGMFKDKATLTVDTSSSTAYMQLSSLTSEDSAVYFCARWLLPFDYWGQGTTLTVSS
VL: QIVLSQSPGILSASPGEKVTMTCRASSSVNYMHWYQQKSGSSPKPWIFATSILASGVPPRFSGSGSGTSYSLTISSVEAEDTATYYCQQFSSDPLTFGAGTKLELK
notes: mAb from wild-type mice; also called 143G03 WT; murine 143G03 mAb
B5: Ch143G03-GF (antibody, V domains shown)
VH: B4 VH
VL: B4 VL
notes: read as chimeric 143G03 (murine variable regions of 143G03, human constant regions). '-GF' is not explained
B6: TDI-Y-005 ADC with PNU-159682 and a cleavable Glu-Val-Cit linker (antibody, human IgG1, kappa, V domains shown)
VH: EVQMVESGGGLVQPGGSLRLSCAAPGFIFSSYNMNWVRQAPGKGLEWVSYISSSSSTTYYADSVKGRFTISRDNAKNSLYLQMNSLRDEDTAVYYCASLYSGYDYYYYYGMDVWGQGTTVTVSS
VL: DIVMTQTPLSSPVSLGQPASISCRSSQSLVHSDGNTYLSWLQQRPGQPPRVLIYKISKRFSGVPDRFSGSGAGTDFTLKISRVEAEDVGVYYCMQATQFPFTFGPGTKVDIKR
modifications: ThioBridge linker-payload on the interchain disulfide cysteine; ThioBridge-Glu[-Glu(OH)-Val-Cit-PAB-DMEA-PNU159682]-PEG(24) rebridging the reduced interchain disulfide cysteines; average DAR about 4
B7: hu14A10 (antibody, V domains shown)
VH: B6 VH
VL: DIVMTQTPLSSPVSLGQPASISCRSSQSLVHSDGNTYLSWLQQRPGQPPRVLIYKISKRFSGVPDRFSGSGAGTDFTLKISRVEAEDVGVYYCMQATQFPFTFGPGTKVDIK
B8: 14A10 (antibody, V domains shown)
VH: B6 VH
VL: B7 VL
notes: mAb from AlivaMab mice
B9: 76H12 Fab construct 2 (humanized) (Fab, V domains shown)
VH: QVQLVQSGAEVKKPGASVKVSCKASGYTFTSYWMHWVRQAPGQGLEWMGNVYPGSGSTKYAQKFQGRVTMTRDTSTSTVYMELSSLRSEDTAVYYCARPGNYEGFAYWGQGTLVTVSS
VL: NIQLTQSPSSLSASVGDRVTITCRASESVDSYGSSFMHWYQQKPGKPPKLLIYLASNLESGVPSRFSGSGSGTDFTLTISSLQPEDFATYYCQQNNEDPWTFGQGTKLEIK
notes: also called Fab 2
B10: 13F04 (antibody, V domains shown)
VH: QVQLQQPGAELVKPGASVKLSCKASGYIFISYWMHWVKQRPGQGLEWIGEINPRNGRTNYNEKFKSKATLTVDKSSSTAYMQLTSLTSEDSAVYYCARGGDYGGSFDYWGQGTTLTVSS
VL: DIVLTQSPASLAVSLGQRATISCRASESVDSYGNSFMHWYQQKPGQPPKLLIYRASNLESGIPARFSGSGSRTDFTLTVNPVEADDVATYYCQQSNEDPWTFGGGTKLEIK
notes: mAb from wild-type mice, purified from the supernatant of a hybridoma clone; also called L1CAM mAb 13F04
B11: 76H12 Fab construct 1 (chimeric; parental mouse 76H12 V-regions) (Fab, V domains shown)
VH: QVQLQQPGSDLVRPGTSVKLSCKASGYTFTSYWMHWVKQRPGQGLEWIGNVYPGSGSTKYDEKFKTKATLTVDTSSNTAYMELSSLTSEDSAVYYCTRPGNYEGFAYWGQGTLVTVSA
VL: B10 VL with D1N, N34S, R54L, I62V, V79I, N80D, V87A, S95N
notes: also called Fab 1; chimeric 76H12 Fab
B12: 04B06 (antibody, V domains shown)
VH: QVQLQESGPGLVKPSETLSLTCTVSGGSINSYYWSWIRQPAGKGLEWIGRFYTSGSTNHNPSLKSRVTMSVDTSKNQFSLKLTSVTAADTAVYYCAREWSGSFYGGDAFDIWGQGTMVTVSS
VL: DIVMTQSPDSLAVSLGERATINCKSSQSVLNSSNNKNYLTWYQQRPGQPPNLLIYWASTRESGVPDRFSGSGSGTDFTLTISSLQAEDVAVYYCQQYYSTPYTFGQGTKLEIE
notes: mAb from AlivaMab mice (human immunoglobulin repertoire), purified from hybridoma supernatant

Key:
human L1CAM on cells [1] = target: T1, human L1CAM on cells (human, UniProt P32004 20-1257); assay: cell-based or functional assay
[2] = target: T2, extracellular domain of human L1CAM (isoform 1) fused to a poly-histidine tag via its carboxy terminus (human, UniProt P32004 20-1120); assay: BLI, soluble human L1CAM-His
T2 construct: Bought (Creative Biomart); also called L1CAM-His; huL1CAM protein
Protocol: (§1) Binding Analysis. […] Dissociation constants (KD) for binding to soluble human and cynomolgus monkey L1CAM-His were determined using biolayer interferometry (BLI). In addition, EC50 values for binding to cell-bound L1CAM were established by flow cytometry using HEK293T/FT cells overexpressing human or mouse L1CAM, MCF-7 cells, and MDA-MB-231 cells. In addition, the epitope regions of the mAbs were determined by BLI interaction analysis with L1CAM subdomains (Ig and FN) expressed individually, and by a BLI competition experiment to identify epitope bins.

human L1CAM on cells [3] = target: T1, human L1CAM on cells; assay: flow cytometry, MDA-MB-231 cells
Protocol: as §1

[4] = target: T3, mouse L1CAM on transiently transfected HEK293FT cells (mouse, UniProt P11627 20-1260); assay: flow cytometry, HEK293FT cells transfected with mouse L1CAM
T3 construct: whole, on cells; also called mouse L1CAM on cells

[5] = target: T4, soluble cynomolgus monkey L1CAM, His-tagged, monomeric (cynomolgus monkey, UniProt A0A2K5URB5 20-1120); assay: BLI, soluble cynomolgus L1CAM-His
T4 construct: also called cyL1CAM protein; cynomolgus L1CAM-His
Protocol: as §1

human L1CAM on cells [6] = target: T1, human L1CAM on cells; assay: flow cytometry, MCF-7 cells
Protocol: as §1

human L1CAM on cells [7] = target: T1, human L1CAM on cells; assay: flow cytometry, HEK293T cells overexpressing human L1CAM
Protocol: as §1

[8] = target: T2, extracellular domain of human L1CAM …; assay: BLI, soluble human L1CAM-His; off-rate below detection limit
human L1CAM on cells [9] = target: T1, human L1CAM on cells; assay: FACS on cells expressing L1CAM (293FT or MDA-MB-231; the table does not say which)
Protocol: Briefly, CDR-grafted heavy and light chains were expressed in various combinations and the antigen-binding properties were evaluated.

[10] = target: T5, recombinant L1CAM-Fc fusion protein (human, UniProt P32004 20-1120); assay: BLI, L1CAM-Fc on AHC biosensors, Fab 3-200 nM, 1:1 fit
T5 construct: also called recombinant L1CAM protein; not shown: human Fc fused to the carboxy terminus
Protocol: Here, recombinant L1CAM-Fc fusion protein was immobilized onto anti-Human IgG Fc Capture (AHC) biosensors and binding of Fabs was measured kinetically over a 3-200 nM concentration range. Kinetic data were fitted to a 1:1 binding model to compute association (kₒₙ) and dissociation (koff) rate constants, in addition to equilibrium dissociation constants (KD) as shown in Table 87.

T3 sequence (P11627 20-1260): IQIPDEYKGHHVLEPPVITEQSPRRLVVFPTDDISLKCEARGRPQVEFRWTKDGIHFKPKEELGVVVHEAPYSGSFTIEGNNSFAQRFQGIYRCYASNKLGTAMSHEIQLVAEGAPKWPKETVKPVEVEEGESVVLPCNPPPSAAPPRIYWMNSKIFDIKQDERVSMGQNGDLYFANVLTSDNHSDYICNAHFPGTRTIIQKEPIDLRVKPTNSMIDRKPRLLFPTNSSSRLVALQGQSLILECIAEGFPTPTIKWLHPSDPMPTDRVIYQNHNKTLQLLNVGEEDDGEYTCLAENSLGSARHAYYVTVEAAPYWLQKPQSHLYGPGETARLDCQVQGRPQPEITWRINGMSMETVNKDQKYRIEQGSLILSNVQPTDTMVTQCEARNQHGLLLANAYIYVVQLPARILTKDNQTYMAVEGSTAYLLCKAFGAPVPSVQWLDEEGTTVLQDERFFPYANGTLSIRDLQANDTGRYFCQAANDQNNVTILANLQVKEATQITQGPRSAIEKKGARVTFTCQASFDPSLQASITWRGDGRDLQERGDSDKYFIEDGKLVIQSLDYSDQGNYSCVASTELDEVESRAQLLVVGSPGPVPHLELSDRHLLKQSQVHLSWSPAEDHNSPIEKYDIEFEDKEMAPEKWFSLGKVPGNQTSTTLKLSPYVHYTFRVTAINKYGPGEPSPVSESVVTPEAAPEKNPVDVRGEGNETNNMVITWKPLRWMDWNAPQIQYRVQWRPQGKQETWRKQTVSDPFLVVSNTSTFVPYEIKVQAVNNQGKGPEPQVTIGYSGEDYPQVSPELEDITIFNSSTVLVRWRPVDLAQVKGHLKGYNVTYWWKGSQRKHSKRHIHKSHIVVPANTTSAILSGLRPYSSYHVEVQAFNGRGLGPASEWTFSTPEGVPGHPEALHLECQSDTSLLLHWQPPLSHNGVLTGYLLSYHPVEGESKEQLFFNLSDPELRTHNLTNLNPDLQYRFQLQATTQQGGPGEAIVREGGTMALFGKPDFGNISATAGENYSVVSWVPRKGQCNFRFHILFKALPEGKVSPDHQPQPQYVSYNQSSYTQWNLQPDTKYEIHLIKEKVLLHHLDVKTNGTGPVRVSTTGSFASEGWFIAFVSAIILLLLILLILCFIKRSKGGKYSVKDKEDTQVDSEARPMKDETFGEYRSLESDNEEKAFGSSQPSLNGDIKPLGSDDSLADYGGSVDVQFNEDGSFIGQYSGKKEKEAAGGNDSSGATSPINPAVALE
T1 sequence (P32004 20-1257): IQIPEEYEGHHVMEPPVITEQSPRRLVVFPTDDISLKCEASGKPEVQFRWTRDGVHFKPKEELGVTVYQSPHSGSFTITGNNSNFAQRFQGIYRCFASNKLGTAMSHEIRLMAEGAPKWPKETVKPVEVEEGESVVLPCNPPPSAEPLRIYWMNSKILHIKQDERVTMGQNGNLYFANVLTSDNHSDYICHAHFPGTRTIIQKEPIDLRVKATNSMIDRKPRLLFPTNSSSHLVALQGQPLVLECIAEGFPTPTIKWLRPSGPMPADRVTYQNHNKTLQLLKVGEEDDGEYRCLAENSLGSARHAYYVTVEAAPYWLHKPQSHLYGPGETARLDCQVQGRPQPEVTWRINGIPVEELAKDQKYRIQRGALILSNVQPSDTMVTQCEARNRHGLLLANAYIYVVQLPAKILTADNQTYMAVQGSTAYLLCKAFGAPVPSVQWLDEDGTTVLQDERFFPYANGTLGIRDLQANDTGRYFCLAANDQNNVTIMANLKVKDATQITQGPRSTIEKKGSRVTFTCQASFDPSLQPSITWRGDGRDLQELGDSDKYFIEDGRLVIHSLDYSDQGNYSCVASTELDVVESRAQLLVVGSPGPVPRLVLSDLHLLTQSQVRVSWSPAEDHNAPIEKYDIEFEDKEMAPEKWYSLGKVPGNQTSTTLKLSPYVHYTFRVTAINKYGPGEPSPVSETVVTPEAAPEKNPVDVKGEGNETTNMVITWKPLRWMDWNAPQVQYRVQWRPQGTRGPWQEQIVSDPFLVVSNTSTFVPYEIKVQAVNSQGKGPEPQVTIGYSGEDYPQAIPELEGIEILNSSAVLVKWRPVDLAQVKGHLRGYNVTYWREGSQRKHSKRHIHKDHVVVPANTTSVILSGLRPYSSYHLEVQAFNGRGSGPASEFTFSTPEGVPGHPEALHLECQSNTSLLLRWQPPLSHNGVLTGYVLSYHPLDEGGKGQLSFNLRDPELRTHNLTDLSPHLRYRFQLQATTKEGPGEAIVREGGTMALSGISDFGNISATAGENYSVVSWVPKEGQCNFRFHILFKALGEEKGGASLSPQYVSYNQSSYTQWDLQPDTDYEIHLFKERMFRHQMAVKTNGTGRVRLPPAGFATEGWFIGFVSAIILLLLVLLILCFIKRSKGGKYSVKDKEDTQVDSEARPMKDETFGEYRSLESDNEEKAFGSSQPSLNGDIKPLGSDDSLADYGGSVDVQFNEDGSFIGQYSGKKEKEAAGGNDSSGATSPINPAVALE
T5 sequence (P32004 20-1120): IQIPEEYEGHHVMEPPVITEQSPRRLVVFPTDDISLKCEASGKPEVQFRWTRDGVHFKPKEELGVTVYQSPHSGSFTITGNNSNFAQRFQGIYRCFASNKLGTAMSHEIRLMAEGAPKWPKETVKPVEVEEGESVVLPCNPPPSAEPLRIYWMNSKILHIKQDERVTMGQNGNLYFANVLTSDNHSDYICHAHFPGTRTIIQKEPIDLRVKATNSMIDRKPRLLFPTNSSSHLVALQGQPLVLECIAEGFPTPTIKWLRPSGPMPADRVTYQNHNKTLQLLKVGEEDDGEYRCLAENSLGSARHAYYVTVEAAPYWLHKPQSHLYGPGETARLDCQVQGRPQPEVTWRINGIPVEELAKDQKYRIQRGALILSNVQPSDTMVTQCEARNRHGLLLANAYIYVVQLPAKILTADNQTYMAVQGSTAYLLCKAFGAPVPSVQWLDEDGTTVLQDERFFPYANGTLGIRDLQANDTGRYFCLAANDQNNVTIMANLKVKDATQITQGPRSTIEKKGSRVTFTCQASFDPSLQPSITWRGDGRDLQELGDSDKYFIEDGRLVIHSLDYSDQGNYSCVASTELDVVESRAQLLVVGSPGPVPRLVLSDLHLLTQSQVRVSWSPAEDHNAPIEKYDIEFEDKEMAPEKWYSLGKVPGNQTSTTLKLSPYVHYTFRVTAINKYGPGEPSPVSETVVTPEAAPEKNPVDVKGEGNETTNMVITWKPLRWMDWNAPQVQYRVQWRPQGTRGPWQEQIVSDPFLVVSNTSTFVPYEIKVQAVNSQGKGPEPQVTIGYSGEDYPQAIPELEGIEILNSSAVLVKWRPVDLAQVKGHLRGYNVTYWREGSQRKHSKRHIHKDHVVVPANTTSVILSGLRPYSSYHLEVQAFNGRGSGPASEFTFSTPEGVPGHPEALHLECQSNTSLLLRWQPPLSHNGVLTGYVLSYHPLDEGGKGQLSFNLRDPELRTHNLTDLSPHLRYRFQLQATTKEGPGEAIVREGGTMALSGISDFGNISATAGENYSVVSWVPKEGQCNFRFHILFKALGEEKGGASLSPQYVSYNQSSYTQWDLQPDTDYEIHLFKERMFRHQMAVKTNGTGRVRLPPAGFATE
T2 sequence (P32004 20-1120): as above

Binder	Kd [2]	EC50 (human L1CAM on cells [3])	binding result [4]	Kd [5]	EC50 (human L1CAM on cells [6])	EC50 (human L1CAM on cells [7])	further results
B1							EC50 of cytotoxicity, HEK293T-hL1CAM cells (CellTiterGlo, 96 hours) (human L1CAM on cells [1]): 0.008 nM; EC50 of cytotoxicity, MCF-7 cells (CellTiterGlo, 96 hours) (human L1CAM on cells [1]): 0.03 nM; EC50 of cytotoxicity, MDA-MB-231 cells (CellTiterGlo, 96 hours) (human L1CAM on cells [1]): 3.3 nM
B2	0.58 nM	0.98 nM	no binding	0.93 nM	1 nM	2.6 nM	
B3		6.7 nM	no binding	3.2 nM	4.8 nM	4.8 nM	Kd [8]: < 0.02 nM
B4	0.12 nM	0.9 nM	no binding	0.34 nM	0.35 nM	1 nM	EC50 (human L1CAM on cells [9]): 0.85 nM
B5							EC50 (human L1CAM on cells [9]): 0.727 nM
B6							EC50 of cytotoxicity, HEK293T-hL1CAM cells (CellTiterGlo, 96 hours) (human L1CAM on cells [1]): 0.03 nM; EC50 of cytotoxicity, MCF-7 cells (CellTiterGlo, 96 hours) (human L1CAM on cells [1]): 0.4 nM; EC50 of cytotoxicity, MDA-MB-231 cells (CellTiterGlo, 96 hours) (human L1CAM on cells [1]): 12.4 nM
B7							EC50 (human L1CAM on cells [9]): 5.93 nM
B8	1.2 nM	8.9 nM		3.2 nM	5.3 nM	3.5 nM	EC50 [4]: 5.6 nM
B9							Kd [10]: 88.8 nM; koff [10]: 0.0706 s⁻¹; kon [10]: 797000 M⁻¹ s⁻¹
B10	1.13 nM	1.7 nM	no binding	19.8 nM	1.2 nM	4 nM	
B11							Kd [10]: 39.6 nM; koff [10]: 0.0232 s⁻¹; kon [10]: 586000 M⁻¹ s⁻¹
B12	0.07 nM	9.6 nM	no binding	0.6 nM	1.1 nM	2.3 nM	
